The conditions of this data set: Bacillus caldolyticus, pH 7, Thermal, CD, Sodium cacodylate-HCl 0.1 M, reversible: yes, whole UniProt chain shown.

B1: Cold shock protein CspB wild type, P41016 (protein)
chain: MQRGKVKWFNNEKGYGFIEVEGGSDVFVHFTAIQGEGFKTLEEGQEVSFEIVQGNRGPQAANVVKL
As to B1, the Tm is 76.9 °C and the “unfolding enthalpy (van 't Hoff)” value was 58.6 kcal/mol. Further, where the note is “70 °C, NaCl 2 M”, the unfolding free energy was 2.2 kcal/mol.

The values are drawn from FireProtDB (doi:10.1038/75151).
